Results from US20250277059A1, “ANTIBODY USED TO TREAT CORONAVIRUS INFECTION” (priority 2022, published 2025).
Where a chain is given by its changes, count along the chain named. Names and notes keep the numbering of the source.

B1: humanized 752-1 IgG4 (S108P) prototype #3 (antibody, V domains shown)
VH: QVQLQQSGTGLARPGASVKLSCKASGYTFTSCGISWVTQRAGQGLEWIGEIYPRGGNTYYNEKFKGKATLTADKSSSSAYMELRGLTAEDSAVYFCARENGNYDPLFAYWGQGTTLTVSS
VL: DIQMTQSPSSLSASVGDRVTITCKASQDINKYIAWYQQKPGKAPKLLIYYTSTLQPGVPSRFSGSGSGTDFTFTISSLQPEDIATYYCLQYYNLWTFGGGTKVEIK
notes: also called humanized #3; hu #3
B2: humanized 752-1 IgG4 (S108P) prototype #4 (antibody, V domains shown)
VH: B1 VH
VL: B1 VL with Y49H
notes: also called humanized #4; hu #4
B3: humanized 752-1 IgG4 (S108P) prototype #1 (antibody, V domains shown)
VH: QVQLVQSGAEVKKPGASVKVSCKASGYTFTSCGISWVRQAPGQGLEWMGEIYPRGGNTYYNEKFKGRVTMTTDTSTSTAYMELRSLRSDDTAVYYCARENGNYDPLFAYWGQGTLVTVSS
VL: B1 VL
notes: also called humanized #1; hu #1
B4: humanized 752-1 IgG4 (S108P) prototype #2 (antibody, V domains shown)
VH: B3 VH
VL: B1 VL with Y49H
notes: also called humanized #2; hu #2
B5: humanized 2228-15 IgG4 (S108P) prototype #1 (antibody, V domains shown)
VH: QVQLVQSGAEVKKPGASVKVSCKASGYTFTDYYINWVRQAPGQGLEWMGWIFPGSGSSYYNAIFKGRVTMTRDTSISTAYMELSRLRSDDTAVYYCARGDFGNFGGFFTYWGQGTLVTVSS
VL: DVVMTQSPLSLPVTLGQPASISCRASKSVSTSGYSFMHWFQQRPGQSPRRLIYLASNLESGVPDRFSGSGSGTDFTLKISRVEAEDVGVYYCQHSRELPLTFGGGTKVEIK
notes: as for B3
B6: humanized 2228-15 IgG4 (S108P) prototype #3 (antibody, V domains shown)
VH: EIQLVQSGAEVKKPGSSVKVSCKASGYTFTDYYINWMRQAPGQGLEWIGWIFPGSGSSYYNAIFKGRATLTVDTSTNTAYMELSSLRSEDTAFYFCARGDFGNFGGFFTYWGQGTLVTVSS
VL: B5 VL
notes: as for B1
B7: recombinant 2228-15 mIgG (antibody, V domains shown)
VH: QVQLQQSGPELVKPGTSVKISCKASGYTFTDYYINWVKQRPGQGLEWIGWIFPGSGSSYYNAIFKGKATLTVDTSSNTAHMSLSSLTSDDSAVYFCARGDFGNFGGFFTYWGQGTLVTVSA
VL: DVVVTQSPASLAVSLGQRATISCRASKSVSTSGYSFMHWYQQKPGQPPKLLIYLASNLESGVPARFSGSGSGTDFILNIHPVEEEDAATYYCQHSRELPLTFGAGTKLELK
B8: 752_1 human IgG4 chimeric antibody (antibody, V domains shown)
VH: B1 VH with T9A, G10E, T38K, A41T, S78T, G85S, A88S, T115L, L116V, S120A
VL: DIQMTQSPSSLSASLGGKVTITCKASQDINKYIAWYQHKPGKGPRLLIHYTSTLQPGIPSRFSGSGSGRDYSFSIYNLEPEDIATYYCLQYYNLWTFGGGTKLEIK
B9: humanized 2228-15 IgG4 (S108P) prototype #2 (antibody, V domains shown)
VH: B5 VH
VL: DIVMTQSPDSLAVSLGERATINCRASKSVSTSGYSFMHWYQQKPGQPPKLLIYLASNLESGVPDRFSGSGSGTDFTLTIRPLQAEDVAVYYCQHSRELPLTFGQGTKLEIK
notes: also called hu #2
B10: 2228_15 human IgG4 chimeric antibody (antibody, V domains shown)
VH: B7 VH
VL: B7 VL
B11: humanized 752-1 IgG4 (S108P) prototype #4: humanized 752 antibody, 752_hVH-2 (SEQ ID NO: 129) and 752_hVL-2 (SEQ ID NO: 119), human IgG4 (S108P) (antibody, V domains shown)
VH: B1 VH
VL: B1 VL with Y49H
B12: humanized 752-1 IgG4 (S108P) prototype #3: humanized 752 antibody, 752_hVH-2 (SEQ ID NO: 129) and 752_hVL-1 (SEQ ID NO: 114), human IgG4 (S108P) (antibody, V domains shown)
VH: B1 VH
VL: B1 VL
modifications: human IgG4 S108P constant region
B13: humanized 2228-15 IgG4 (S108P) prototype #4: humanized 2228 antibody, 2228_hVH-2 (SEQ ID NO: 149) and 2228_hVL-2 (SEQ ID NO: 139), human IgG4 (S108P) (antibody, V domains shown)
VH: B6 VH
VL: B9 VL
modifications: human IgG4 S108P constant region
B14: humanized 752-1 IgG4 (S108P) prototype #1: humanized 752 antibody, 752_hVH-1 (SEQ ID NO: 124) and 752_hVL-1 (SEQ ID NO: 114), human IgG4 (S108P) (antibody, V domains shown)
VH: B3 VH
VL: B1 VL
modifications: human IgG4 S108P constant region
B15: humanized 752-1 IgG4 (S108P) prototype #2: humanized 752 antibody, 752_hVH-1 (SEQ ID NO: 124) and 752_hVL-2 (SEQ ID NO: 119), human IgG4 (S108P) (antibody, V domains shown)
VH: B3 VH
VL: B1 VL with Y49H
modifications: human IgG4 S108P constant region
B16: humanized 2228-15 IgG4 (S108P) prototype #2: humanized 2228 antibody, 2228_hVH-1 (SEQ ID NO: 144) and 2228_hVL-2 (SEQ ID NO: 139), human IgG4 (S108P) (antibody, V domains shown)
VH: B5 VH
VL: B9 VL
modifications: human IgG4 S108P constant region
B17: humanized 2228-15 IgG4 (S108P) prototype #1: humanized 2228 antibody, 2228_hVH-1 (SEQ ID NO: 144) and 2228_hVL-1 (SEQ ID NO: 134), human IgG4 (S108P) (antibody, V domains shown)
VH: B5 VH
VL: B5 VL
modifications: human IgG4 S108P constant region
B18: humanized 2228-15 IgG4 (S108P) prototype #3: humanized 2228 antibody, 2228_hVH-2 (SEQ ID NO: 149) and 2228_hVL-1 (SEQ ID NO: 134), human IgG4 (S108P) (antibody, V domains shown)
VH: B6 VH
VL: B5 VL
modifications: human IgG4 S108P constant region

What follows are molecules tested against T1, Human TMPRSS2 recombinant protein, extracellular region (N-terminal His tag, C-terminal Strep-tag II) (human, UniProt O15393 106-492) (assay: SPR (BIACore)). Conditions: not given.
T1 construct: also called Human TMPRSS2 recombinant proteins; extracellular region of human TMPRSS2
T1 sequence (O15393 other isoform, or with tags, fused parts or gaps limits assumed): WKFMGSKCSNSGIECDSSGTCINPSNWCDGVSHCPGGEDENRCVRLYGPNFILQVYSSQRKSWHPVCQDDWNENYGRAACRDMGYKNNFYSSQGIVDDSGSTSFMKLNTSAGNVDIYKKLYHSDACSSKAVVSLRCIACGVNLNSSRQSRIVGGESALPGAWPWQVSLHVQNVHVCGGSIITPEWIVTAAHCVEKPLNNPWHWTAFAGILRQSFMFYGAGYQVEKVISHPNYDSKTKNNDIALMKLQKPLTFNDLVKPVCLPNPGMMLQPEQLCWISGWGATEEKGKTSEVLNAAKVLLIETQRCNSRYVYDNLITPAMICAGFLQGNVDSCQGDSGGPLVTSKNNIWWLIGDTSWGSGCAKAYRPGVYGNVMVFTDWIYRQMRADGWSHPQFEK
Molecule B1 has a Kd of 2.11 nM, a koff of 0.00469 s⁻¹ and a kon of 2.22e+06 M⁻¹ s⁻¹. B2 was tested, and the Kd was 2.44 nM, the koff was 0.00611 s⁻¹ and the kon was 2.5e+06 M⁻¹ s⁻¹. In the case of B3, the Kd is reported as 22.6 nM, the koff is reported as 0.00932 s⁻¹ and the kon is reported as 412000 M⁻¹ s⁻¹. With B4 the Kd was 13.4 nM, the koff was 0.0152 s⁻¹ and the kon was 1.13e+06 M⁻¹ s⁻¹. B5 gave a Kd of 12.3 nM, a koff of 0.0641 s⁻¹ and a kon of 5.22e+06 M⁻¹ s⁻¹. Work on B6 yielded a Kd of 0.938 nM, a koff of 0.000774 s⁻¹ and a kon of 825000 M⁻¹ s⁻¹. Molecule B7 has a Kd of 3.72 nM.

These molecules were tested against T2, Human TMPRSS2 expressed on cells (human, UniProt O15393 1-492) (assay: not given). Conditions: not given.
T2 construct: also called TMPRSS2 expressing cells; Daudi-TMPRSS2 transfectant
T2 sequence (O15393 whole entry): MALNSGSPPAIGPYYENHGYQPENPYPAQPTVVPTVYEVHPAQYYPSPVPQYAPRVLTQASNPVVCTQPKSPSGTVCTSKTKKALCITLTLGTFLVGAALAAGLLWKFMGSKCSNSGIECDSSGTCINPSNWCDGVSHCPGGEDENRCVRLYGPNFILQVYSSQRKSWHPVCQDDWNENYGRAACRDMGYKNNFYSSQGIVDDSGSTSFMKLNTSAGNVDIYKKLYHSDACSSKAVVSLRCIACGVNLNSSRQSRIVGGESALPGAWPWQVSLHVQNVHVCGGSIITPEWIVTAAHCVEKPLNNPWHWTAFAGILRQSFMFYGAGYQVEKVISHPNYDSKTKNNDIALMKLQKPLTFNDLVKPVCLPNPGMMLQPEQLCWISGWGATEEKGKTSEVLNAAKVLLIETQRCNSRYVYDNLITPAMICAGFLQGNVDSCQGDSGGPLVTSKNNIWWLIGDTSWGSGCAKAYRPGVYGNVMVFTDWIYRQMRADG
With B8 the “APC median at 3 µg/ml” value was 2040. For B1, the “APC median at 3 µg/ml” value was 1560. With B2 the “APC median at 3 µg/ml” value was 1650. For B3, the “APC median at 3 µg/ml” value was 1450. For B4, the “APC median at 3 µg/ml” value was 1410. B5 was tested, and the “APC median at 3 µg/ml” value was 579. B6 was tested, and the “APC median at 3 µg/ml” value was 862. In the case of B9, the “APC median at 3 µg/ml” value is reported as 2540. With B10 the “APC median at 3 µg/ml” value was 2370.

What follows are molecules tested against human TMPRSS2 (Homo sapiens, UniProt O15393) (assay: BIACore binding assay of anti-TMPRSS2 antibodies). Conditions: Table 8, recombinant and humanized antibodies.
human TMPRSS2, sequence (O15393 106-492 limits assumed): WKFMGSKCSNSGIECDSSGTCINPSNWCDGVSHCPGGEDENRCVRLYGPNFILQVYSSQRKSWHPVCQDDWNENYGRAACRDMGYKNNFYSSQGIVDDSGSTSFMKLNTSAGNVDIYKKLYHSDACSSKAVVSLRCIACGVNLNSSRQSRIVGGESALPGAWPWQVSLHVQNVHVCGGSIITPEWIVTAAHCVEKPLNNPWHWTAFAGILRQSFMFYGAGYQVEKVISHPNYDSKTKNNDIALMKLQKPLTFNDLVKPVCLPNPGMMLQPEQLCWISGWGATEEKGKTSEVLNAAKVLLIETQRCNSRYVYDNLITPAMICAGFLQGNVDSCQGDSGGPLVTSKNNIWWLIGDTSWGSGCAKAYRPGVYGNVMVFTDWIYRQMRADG
For B11, the “ka” value was 2.5e+06 M⁻¹ s⁻¹ and the “kd” value was 0.006114 s⁻¹. With B12 the “ka” value was 2.22e+06 M⁻¹ s⁻¹ and the “kd” value was 0.004691 s⁻¹. For B13, the “ka” value was 1.44e+06 M⁻¹ s⁻¹ and the “kd” value was 0.0001 s⁻¹. With B14 the “ka” value was 412000 M⁻¹ s⁻¹ and the “kd” value was 0.009321 s⁻¹. With B15 the “ka” value was 1.13e+06 M⁻¹ s⁻¹ and the “kd” value was 0.01521 s⁻¹. In the case of B16, the “ka” value is reported as 731000 M⁻¹ s⁻¹ and the “kd” value is reported as 0.001039 s⁻¹. With B17 the “ka” value was 5.22e+06 M⁻¹ s⁻¹ and the “kd” value was 0.0641 s⁻¹. In the case of B18, the “ka” value is reported as 825000 M⁻¹ s⁻¹ and the “kd” value is reported as 0.000774 s⁻¹.
